Experimental data: doi:10.1101/2022.02.24.481830 (bioRxiv, 2022)

Assays:
H3 COBRA TJ5 HA protein = H3 COBRA TJ5 HA protein (Influenza A virus H3, synthetic …)
H3 COBRA J4 HA protein = H3 COBRA J4 HA protein (Influenza A virus H3, synthetic …)
H3 COBRA NG2 HA protein = H3 COBRA NG2 HA protein (Influenza A virus H3, synthetic …)

Measured: binding result

B1: TJ5-16 (antibody, V domains shown)
VH: EVQLVQSGAEVKKPGASVKVSCKASGYTFTGYYIYWVRQAPGQGLEWMGWINPNGGGTNYAQKFQGRVTMTRDTSITTAYMELSRLRSDDSAVYYCAARAGPGTQDAQTIDFWGQGTLVTVSS
VL: SYELTQPPSVSVSPGQTARITCSGDALPKQYGYWYQQKPGQAPVLVIYKDSERPSGIPERFSGSSSGTTVTLTISGVQAEDEADYYCQSADSSGSYWVFGGGTKLT
binds: H3 COBRA TJ5 HA protein | H3 COBRA J4 HA protein | H3 COBRA NG2 HA protein
